Reference: patent US20120237496
Where a chain is given by its changes, count along the chain named.

B1: C18 (protein)
chain: YPYDVPDYAYPYDVPDYAYPYDVPDYAGSYDDGICKSSDCIKSAARLIQNMDATTEPCTDFFKYACGGWLKRNVIPETSSRYGNFDILRDELEVVLKDVLQEPKTEDIVAVQKAKALYRSCINESAIDSRGGEPLLKLLPDIYGWPVATENWEQKYGASWTAEKAIAQLNSKYGKKVLINLFVGTDDKNSVNHVIHIDQPRLGLPSGDYYECTGIYKEACTAYVDFMISVARLIRQEERLPIDENQLALEMNKVMELEKEIANATAKPEDRNDPMLLYNKMTLAQIQNNFSLEINGKPFSWLNFTNEIMSTVNISITNEEDVVVYAPEYLTKLKPILTKYSARDLQNLMSWRFIMDLVSSLSRTYKESRNAFRKALYVTTSETATWRRCANYVNGNMMNAVGRLYVEAAFAGESKHVVEDLIAQIREVFIQTLDDLTWMDAETKKRAEEKALAIKERIGYPDDIVSNDNKLNNEYLELNYKEDEYFENIIQNLKFSQSKQLKKLREKVDKDEWISGAAVVNAFYSSGRNQIVFPAGILQPPFFSAQQSNSLNYGGIGMVIGHEITHGFMDNVRNFNKDWDLVDWWTQQSASNFKEQSQCMVYQYGNFSWDLAGGQHLNGINTLGENIADNGGLGQAYRAYQNYIKKNGEEKLLPGLDLNHKQLFFLNFAQVWCGTYRPEYAVNSIKTDVHSPKNFRIIGTLQNSAEFSEAFHCRKNSYMNPEKKCRVW
B2: C19 (protein)
chain: B1 chain with V572G, F575P, W579L

How the values were obtained:
Peptide-13 = biological target: T1, Peptide-13 (not fully specified)
T1 chain: CRPPGFSPFRK

Peptide-3 = biological target: T2, Peptide-3
T2 chain: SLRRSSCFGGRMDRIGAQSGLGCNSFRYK

Peptide-5 = biological target: T3, Peptide-5 (not fully specified)
T3 chain: CDRVYIHPFHLK

Peptide-6a = biological target: T4, Peptide-6a
T4 chain: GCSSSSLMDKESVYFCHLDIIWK

Peptide-6b = biological target: T5, Peptide-6b
T5 chain: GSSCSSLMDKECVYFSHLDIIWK

Peptide-8 = biological target: T6, Peptide-8 (not fully specified)
T6 chain: CQLYENKPRRPYILK

Row | Protein | kapp ratio vs G399V/G714K (B1) (Peptide-1) | kapp ratio vs G399V/G714K (B1) (Peptide-13) | kapp ratio vs G399V/G714K (B1) (Peptide-2) | kapp ratio vs G399V/G714K (B1) (Peptide-3) | kapp ratio vs G399V/G714K (B1) (Peptide-4) | kapp ratio vs G399V/G714K (B1) (Peptide-5) | kapp ratio vs G399V/G714K (B1) (Peptide-6a) | kapp ratio vs G399V/G714K (B1) (Peptide-6b) | kapp ratio vs G399V/G714K (B1) (Peptide-7) | kapp ratio vs G399V/G714K (B1) (Peptide-8)
1 | B1 | 2.56 fold | 0.5 fold | 2.29 fold | 0.24 fold | 0.59 fold | 0.16 fold | 0.36 fold | 0.26 fold | 0.67 fold | 0.73 fold
2 | B2 | 2.33 fold | 0.33 fold | 2.34 fold | 0.24 fold | 0.67 fold | 0.15 fold | 0.29 fold | 0.19 fold | 0.34 fold | 0.29 fold
